Experiments:
[1] = target: T1, hCMV UL128 + UL130 + UL131A (co-expressed in HEK293T cells) (human cytomegalovirus, UniProt P16837 28-171; P16772 1-214; F5HET4 19-129); assay: cell-based or functional assay
[2] = target: T1, hCMV UL128 + UL130 + UL131A …; assay: cell-based or functional assay; remark: listed apart in the source

T1 sequence (P16837 28-171 limits assumed, one chain of several): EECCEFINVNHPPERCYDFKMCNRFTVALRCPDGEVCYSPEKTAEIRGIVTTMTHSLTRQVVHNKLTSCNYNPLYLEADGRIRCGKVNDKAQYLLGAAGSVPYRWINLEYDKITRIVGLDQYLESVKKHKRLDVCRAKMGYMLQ

Binder	50% Neutralization ARPE [1]	50% Neutralization MRC-9 [1]	90% Neutralization ARPE [2]	90% Neutralization MRC-9 [2]
9I6 (antibody, V domains shown) VH: EVQLVQSGAEVKKPGESLKISCRESGDTFPAYWIAWVRQMPGKGLEWMGIIYPIDSETTYSPSFQGQVTISADKSINTAYLQWSSLKASDSAIYYCARGTSTGLREAFHIWGQGTMVTVSS VL: DVVMTQSPLSLAVTLGQPAYISCRSSQSLGYSDGNTYLNWFQQRPGQSPRRLIYEVSNRDSGVPDRFSGSGSGTDFTLKISRVEAEDVGTYYCMQGTHWPPMCSFGQGTKLEIK	< 0.001 µg/mL	> 2 µg/mL	0.0007 µg/mL	> 10 µg/mL
8C15 (antibody, V domains shown) VH: QVQLQESGPGLVKPSETLSLTCTVSGGSIRSYYWSWIRQPPGKGLEWIGHIYYSGNTNYSPSLQSRVTISLDTPKNQFSLRLSSVTAADTAVYYCARHDVIVVRGVFDVWGQGTVVTVSS VL: QSALTQPASVSGSPGQSITISCTGTSSDIGTYNLVSWYQQHPGKAPKVLIYDGSKRPSGVSSRFSASKSGNTASLTISGLQAEDETDYYCCSYAGTSDFFVVFGGGTKLTVL	< 0.001 µg/mL	> 2 µg/mL	0.0025 µg/mL	> 10 µg/mL
2C12 (antibody, V domains shown) VH: QITLRESGPTLVKPTQTLTLTCTFSGFSLNTNGVGVGWIRQPPGKALEWLALIYWNGNEGYSPSLKSRLTITKDTSKNQVVLTMTNMDPVDTATYYCVHWPQGLTTVTRLAFDIWGQGTMVTVSS VL: QSALTQPRSVSGSPGQSVTISCTGTTSDVGRYNFVSWYQQHPGKAPKLLMYDVSQRPSGVPSRFSGSKSGNTASLTISGLQAEDEAVFYCCSYAGGNFFSYVFGTGTKVTVL	< 0.01 µg/mL	≤ 2 µg/mL	0.006 µg/mL	> 10 µg/mL
8J16 (antibody, V domains shown) VH: QVQLQESGPGLVKPSETLSLTCSVSGGFTSSYYWSWIRQAPGKGLEWIGYVYYGESTDYNPSLKSRATISIDTSKNQFSLKLSSVTAADTAVYYCAREVDKRGFDYWGQGALVTVSS VL: EIVLTQSPGTLSLSPGERATLSCRASQSVSGGYLAWYQQEPGQAPRLVIYGASSRATGIPDRFSASGSGTDFTLTITRLEPEDFAVYYCQQYGRTPLTFGGGTKVEIK	< 0.001 µg/mL	> 2 µg/mL	0.0008 µg/mL	> 10 µg/mL
7I13 (antibody, V domains shown) VH: QVQLVESGGGVVQPGRSLRLSCAASGFTFSNYGMHWVRQGPGKGLEWVAVISYDASSKYYTDSVQGRFTISRDNSKNTLFLQMNSLRGEDTAVYYCAKALRYLDWFLSDPFDYWGQGTLVTVSS VL: EIVLTQSPGTLSLSPGERATLSCRASQSVSSDFLAWYQQKPGQAPRLLIYGASSRATGIPDRFSGSGSGTDFTLTISRLEPEDFAVYYCQQYAASPPFGQGTRLEIK	< 0.01 µg/mL	> 2 µg/mL	0.008 µg/mL	> 10 µg/mL
7B13 (antibody, V domains shown) VH: QVQLVESGGGVVQPGGSLRLSCAASGFSFSNYGMHWVRQAPGKGLEWVALIPSDGNYQYYTDSVKGRFTVSRDNSRNTLYLQMKSLRAEDTARYHCAHLGGGLFDFWGQGTLVTVSS VL: QSALNQPRSVSGSPGQSVSISCTGSSSDVGGYEFVSWYQHHPGKAPKLIIYDVDKRPSGVPDRFSGSRSGDTASLTISGLQAEDEADYYCYSSADTWVFGGGTKLTVL	< 0.001 µg/mL	> 2 µg/mL	0.003 µg/mL	> 10 µg/mL
